For orientation: stoichiometry N means the number of molecules, sites or subunits per partner or assembly.

Results on one substance are retold here after paper PMC2610422.

The target in this assay is transmembrane glycoprotein gp41 of HIV-1 strain BaL, in the native spike on virions (HIV-1 strain BaL). Description: cryo-EM structure.

“transmembrane glycoprotein gp41 of HIV-1 strain BaL, in the native spike on virions (natural protein)” showed a stoichiometry N of 3.
